Laboratory results reported in article PMC9931449.

How the values were obtained:
Assay in all cases: fluorescence anisotropy
[1] = molecular target: APE1 C65S (Homo sapiens, UniProt P27695 1-318, C65S)
[2] = molecular target: APE1 C310S (Homo sapiens, UniProt P27695 1-318, C310S)
[3] = molecular target: APE1 WT (Homo sapiens, UniProt P27695 1-318)
Chain of APE1 WT (P27695 whole entry): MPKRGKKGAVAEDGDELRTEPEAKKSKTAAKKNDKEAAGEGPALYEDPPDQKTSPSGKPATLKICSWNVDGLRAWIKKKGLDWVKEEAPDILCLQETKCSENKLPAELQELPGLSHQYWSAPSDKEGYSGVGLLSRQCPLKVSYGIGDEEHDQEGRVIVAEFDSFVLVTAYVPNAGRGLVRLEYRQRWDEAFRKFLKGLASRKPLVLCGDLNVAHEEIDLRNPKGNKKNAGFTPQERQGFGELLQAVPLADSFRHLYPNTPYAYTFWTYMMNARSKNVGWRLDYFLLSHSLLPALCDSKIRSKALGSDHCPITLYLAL

Chain of APE1 C310S (P27695 whole entry C310S): as the sequence (P27695 whole entry) above, with C310S counted along it
Chain of APE1 C65S (P27695 whole entry C65S): as the sequence (P27695 whole entry) above, with C65S counted along it

B1: N3-5 G4 (structured_DNA)
DNA: TAGGGTGCTGTTTGGGCGGGGCCTGGGCGGGGCC
[1]
  binding result: binds
[2]
  binding result: binds

B2: N3-4 G4 (structured_DNA)
DNA: TTGGGCGGGGCCTGGGCGGGGCC
[1]
  binding result: binds
[2]
  binding result: binds

B3: N3 WT duplex (dsDNA)
DNA 1: TTGGGCGGGGCCTGGGCGGGGCC
DNA 2: GGCCCCGCCCAGGCCCCGCCCAA
[3]
  binding result: no binding
